Test results taken from patent publication US10407469B2, “Programmable polypeptide and nucleic acid nanoparticles” (Northwestern University, priority 2016, dated 2019).

Legend:
siRNA [1] = experiment: siRNA binding, electrophoresis gels; details: compared with P4
Source text: (§1) FIGS. 1A-I. Nanoparticles of an engineered polypeptide carrying siRNA (A) C-terminus RNA binding motif CT-dsRBD (in yellow) excised from a canonical double stranded RNA binding domain (dsRBD) and fused to a self-assembly enhancer […] in order to obtain the engineered RNA binding polypeptide (P4) (B) electrophoresis gels of proteins binding siRNA (left). Plot of the bound siRNA (right). (C) Structural change of P4 and CT-dsRBD upon binding to siRNA determined by circular dichroism. (D) Increase in hydrodynamic size of P4 upon siRNA binding determined by DLS. (E) siRNA-P4 nanoparticles in solution imaged by cryo-TEM. Scale bar is 200 nm. […] (H) Salt stability of P4 nanoparticles. (I) Formation of siRNA-P4 nanoparticles in different buffers.
(§2) FIGS. 2A-J. Programmable protein for bioactive siRNA delivery nanoparticles. (A) P4 is functionalized with bioactive peptides, P4-RGD & P4-His6. […] (E) Ellipticity change in function of siRNA concentration (bottom scale) and P4-to-siRNA stoichiometry (top scale). (F) Hydrodynamic size and (G) Zeta potential of P4 nanoparticles. (H & I) Cryo-TEM and (j) AFM micrographs of siRNA-P4 nanoparticles.

siRNA [2] = experiment: Structural change upon siRNA binding, circular dichroism; format: physicochemical
Source text: as §1, §2

siRNA [3] = experiment: Nanoparticle self-assembly upon siRNA binding (DLS, cryo-TEM); format: physicochemical
Source text: as §1, §2

Row | Substance | binding to siRNA / nucleic acid cargo (siRNA [1]) | Structural change triggered by siRNA binding (siRNA [2]) | self-assembly into nanoparticles upon binding to nucleic acid (siRNA [3]) | hydrodynamic size upon siRNA binding (siRNA [3]; determined by DLS)
1 | P4-His6: P4 functionalized with bioactive peptide His6 (HHHHHHSIRKLEYEIEELRLRIGGGTFVETGSGTSKQVAKRVAAEKLLTKFKT) | bind to siRNA similarly as P4 | triggered by siRNA binding as in P4 | – | –
2 | P4-RGD: P4 functionalized with bioactive peptide RGD (CRGDCSIRKLEYEIEELRLRIGGGTFVETGSGTSKQVAKRVAAEKLLTKFKT) | bind to siRNA similarly as P4 | triggered by siRNA binding as in P4 | – | –
3 | P4: engineered RNA binding polypeptide: CT-dsRBD RNA binding motif fused to a self-assembly enhancer helix (SIRKLEYEIEELRLRIGGGTFVETGSGTSKQVAKRVAAEKLLTKFKT) | – | – | self-assembles into nanoparticles upon binding to siRNA | Increase
